Target: CD47 receptor (plate-coated and soluble antigen of the affinity ELISA) (UniProt Q08722 19-141, limits assumed)
Experiment: ELISA of equilibrated mAb/receptor mixtures on CD47-coated plate (Friguet method)
Experimental: Briefly, the 96-well plate was coated with 200 ng of CD47 receptor in 100 μL of coating buffer (50 mM carbonate-bicarbonate buffer, pH 9.6) and incubated at 4° C. overnight. The plate was washed three times with PBS containing 0.05% Tween 20, and blocked with 2% BSA (bovine serum albumin). […] After incubating at 37° C. for 1 hr, 100 μL of HRP goat anti-mouse IgG secondary antibody (Abcam, Cambridge, Mass.) at concentration of 50 ng/mL was added to each well and incubated at 37° C. for 1 hr, followed with TMB substrate for color development. The reaction was stopped by adding 100 μL of 1M sulfuric acid. The absorbance was recorded with BioTek plate reader at a wavelength of 450 nm.

Sequence of CD47 receptor (plate-coated and soluble antigen of the affinity ELISA) (Q08722 19-141 limits assumed): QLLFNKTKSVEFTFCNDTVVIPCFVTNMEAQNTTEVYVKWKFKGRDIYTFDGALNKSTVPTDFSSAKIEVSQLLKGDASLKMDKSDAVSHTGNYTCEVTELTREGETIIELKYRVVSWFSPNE

B1: anti-CD47 monoclonal antibody (IgG2b/kappa) (antibody, V domains shown)
VH: EVQLVESGGGLVQPKGSLKLSCAASGFTFNTYAMNWVRQAPGKGLEWIARIRSKSNNYATYYADSMKDRFTISRDDSQSMLYLQMNNLKTEDTAMYYCVRPAQGAMDYWGHGTSVTVSS
VL: DIVLTQSPATLSVTPGDSVSLSCRASQRISNNLHWYQQKSHESPRLLIKYSSQSISGIPSRFSGSGSGTDFTLSINSVETEDFGMYFCQQSNAWPYTFGGGTKLEIRR
notes: The antibody was labelled with Alexa Fluor 647 for flow cytometry and confocal imaging; also called anti-CD47 mAb; CD47 mAb
- Kd: 2.3 nM

From US20230054375A1 (UAB RESEARCH FOUNDATION, published 2023)
